The record followed here is patent US20230109780A1 (XIYUAN ANJIAN MEDICINE SHANGHAI, published 2023).

Where two headings read alike, the source gives them in different places. Some results are limits rather than exact numbers.

Assay [1] addresses T1, recombinant human NGF protein (human, UniProt P01138 122-241).
T1 construct: Bought protein; also called nerve growth factor; biotin-labeled human NGF
The assay is described as follows: BLI (ForteBio Octet Red96), biotin-NGF on SA sensor, antibody in solution. From the text: The affinities of the antibodies were detected with Biomolecular Interaction Detection Platform (ForteBio Octet Red96 (PALL)). Biotin-labeled human NGF was immobilized by using SA (Streptavidin) Biosensor (Fortebio, 18-5021), and then conjugated with gradient concentrations of anti-NGF antibodies.
Background: In BLI a coated tip is dipped into the sample, and binding shifts an interference pattern.

Assay [2] addresses T1, recombinant human NGF protein. The assay is described as follows: blocking ELISA, human NGF coated, antibody first, then TrkA-Fc. Here is the method: If using the coated ligand NGF method for detection, each well of a 96-well microtiter plate was coated with 50 ng of human NGF and washed three times. […] 100 μL of 1 μg/mL TrkA fused to human Fc was added to each well, incubated for 1 hour at room temperature, and washed three times. HRP-conjugated donkey anti-human IgG antibody (Biolegend, 410902) was added and reacted for 1-hour at room temperature. After washing, add TMB to develop color, and read after the termination of development.

For assay [3] the target is unchanged. Put plainly: blocking ELISA, TrkA-Fc coated, antibody premixed with biotin-labeled human NGF. Here is the method:
If the method of coated receptor TrkA is used for detection, 50 ng of NGF receptor TrkA protein (fused to human Fc) was coated in each well of a 96-well microtiter plate, washed three times, and then blocked with 3% BSA for 1 hour. […] 100 μl was taken and mixed with an equal volume of 1 μg/mL biotin-labeled human NGF, incubated at room temperature for 0.5 hours, and then added to an ELISA plate which has been washed with blocking solution. Incubated for 1 hour at room temperature and washed three times. Streptavidin-labeled HRP (Biolegend, 405210) was added, and incubated for 0.5 h and then washed three times. The microtiter plate was added with TMB, and read after the color development was terminated.
Background: ELISA stands for enzyme-linked immunosorbent assay.

For assay [4] the target is unchanged. Put plainly: ELISA, human NGF coated. Here is the method: (§1) The binding capacity of anti-NGF antibodies was investigated by using human NGF as an antigen (Beijing Yiqiao Shenzhou Technology Co., Ltd., 11050-HNAC). Each well of a 96-well microtiter plate was coated with 50 ng of human NGF, after washing and blocking, and then added with serially diluted antibodies, and incubated at room temperature for 1 hour. After washing three times, HRP-conjugated goat anti-mouse antibody (Biolegend, 405306) was added and incubated at room temperature for 1 hour. After washing three times, tetramethylbenzidine (TMB, Biolegend, 421101) was added for color development. 1M HC1 was used to terminate the color development, and the absorbance values were read at 450 nm with a microplate reader.

Assay [5] shares this target. Put plainly: cell-based or functional assay.
Assay [6] has the same target. Put plainly: cell-based or functional assay. This is another data set of the same source.
For assay [7] the target is unchanged. Put plainly: cell-based or functional assay. This is another data set of the same source.
For assay [8], the target named is T2, human BDNF (human, UniProt P23560 129-247).
T2 construct: Bought protein; also called Brain-Derived Neurotrophic Factor
T2 sequence (looked up): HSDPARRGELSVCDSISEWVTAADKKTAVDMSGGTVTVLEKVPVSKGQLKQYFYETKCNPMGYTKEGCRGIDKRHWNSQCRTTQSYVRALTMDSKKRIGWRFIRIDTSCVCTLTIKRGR
The assay is described as follows: ELISA, plate coated with human BDNF (50 ng per well), OD450. The protocol: as §1
(§2) Each well of a 96-well microtiter plate was coated with 50 ng of human NGF (Beijing Yiqiao Shenzhou Technology Co., Ltd., 11050-HNAC), human BDNF (Beijing Yiqiao Shenzhou Technology Co., Ltd., 50240-MNAS), human NT-3 (Beijing Yiqiao Shenzhou Technology Co., Ltd., 10286-HNAE), or human NT-4 (Alomone, N-270). The bindings of the murine anti-NGF antibodies to human NGF and three homo-family proteins were detected according to the method described in Example 2.

Assay [9] deals with T3, human NT-4 (human, UniProt P34130 81-210).
T3 construct: Bought protein; also called Neurotrophic factor-4
T3 sequence (looked up): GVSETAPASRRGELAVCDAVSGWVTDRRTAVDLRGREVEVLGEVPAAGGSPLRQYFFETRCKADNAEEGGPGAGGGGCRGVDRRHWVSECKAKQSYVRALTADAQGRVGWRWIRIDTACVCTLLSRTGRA
The assay is described as follows: ELISA, plate coated with human NT-4 (50 ng per well), OD450. The protocol:
as §1, §2

In assay [10] the target is T4, human NT-3 (human, UniProt P20783 139-257).
T4 construct: Bought protein; also called Neurotrophic factor-3
T4 sequence (looked up): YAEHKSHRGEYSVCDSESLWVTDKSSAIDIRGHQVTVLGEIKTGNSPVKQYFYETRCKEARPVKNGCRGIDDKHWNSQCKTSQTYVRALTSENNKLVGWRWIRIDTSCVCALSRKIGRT
The assay is described as follows: ELISA, plate coated with human NT-3 (50 ng per well), OD450. The protocol:
as §1, §2

Assay [11] addresses T3, human NT-4. The assay is described as follows: ELISA, plate coated with human NT-4 (50 ng per well), OD450. The source holds these as a separate data set.
In assay [12] the target is T4, human NT-3. Put plainly: ELISA, plate coated with human NT-3 (50 ng per well), OD450. The source holds these as a separate data set.
In assay [13] the target is T1, recombinant human NGF protein. The assay is described as follows: ELISA, human NGF coated. Here is the method:
The affinity and specificity of humanized antibody were investigated by using human NGF as an antigen (Beijing Yiqiao Shenzhou Technology Co., Ltd., 11050-HNAC). NGF was diluted with […] coating solution (PBS), and each well of 96-well microtiter plate was coated with 50 ng, after washing and blocking, and then added with serially diluted antibodies, and incubated at room temperature for 1 hour. After washing three times, HRP-conjugated donkey anti-human IgG antibody (Biolegend) was added and reacted at room temperature for 1 hour. After washing three times, tetramethylbenzidine (TMB, Biolegend) was added for color development. 1M HC1 was […] used to terminate the color development, and the absorbance values were read at 450 nm with a microplate reader.
The source holds these as a separate data set.

Assay [14] concerns the target T2, human BDNF. The assay is described as follows: ELISA, plate coated with human BDNF (50 ng per well), OD450. This is another data set of the same source.
Assay [15] concerns the target T1, recombinant human NGF protein. Put plainly: cell-based or functional assay. The source holds these as a separate data set.

T1 sequence (P01138 122-241 limits assumed): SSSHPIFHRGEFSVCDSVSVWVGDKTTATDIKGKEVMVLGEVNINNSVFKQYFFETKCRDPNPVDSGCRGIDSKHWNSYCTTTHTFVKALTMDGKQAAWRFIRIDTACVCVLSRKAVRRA

B1: murine anti-human NGF monoclonal antibody 137H8 (antibody, V domains shown)
VH: QVQLKESGPGLVAPSQSLSITCTVSGFSLTGYAVNWVRQPPGKGLEWLGMIWFDGSTDYNSALKSRLSISKDNSKSQVFLKMNSLQTDDTARYYCARDYYGSSWYFDVWGAGTTVTVSS
VL: DIQMTQTTSSLSASLGDRVTISCRASQDISYYLNWYQQKPDGTVKLLIYYTSRLHSGVPSRFSGSGSGTDYSLTISNLEQEDIATYFCQQGNTLPRTFGGGTKLDIK
notes: Murine monoclonal antibody purified from hybridoma medium by protein G; also called anti-NGF antibody 137H8
What is called Kd is the equilibrium constant for the complex coming apart. What is called koff is the rate constant with which the complex falls apart. One may read the kon as the second-order rate constant of association. Broadly, the IC50 is the midpoint of a concentration-inhibition curve. The term EC50 denotes the concentration giving half of the maximal effect. For B1, in assay [1], the Kd worked out at 0.381 nM, the koff stood at 4.91e-05 s⁻¹ and the kon stood at 129000 M⁻¹ s⁻¹. Also, the IC50 in assay [2] came out at 0.791 nM. For the same molecule, the half-maximal inhibitory concentration (IC50) in assay [3] turned out to be 0.738 nM. Besides, the EC50 in assay [4] is 0.112 nM. Also, the “IC50, inhibition of NGF-induced proliferation of TrkA/Ba/F3 cells” value (shortened to “IC50, inhibition … of TrkA/Ba/F3 cells”) in assay [5] was determined as 0.083 nM. Besides, the “IC50 (row head prints EC50), inhibition of reporter gene expression in TrkA/NFAT-bla/CHO cells” value in assay [6] is 0.0859 nM. The “IC50, inhibition of NGF-induced proliferation of TF-1 cell” value (from here on “IC50, inhibition … of TF-1 cell”) in [7] was 0.123 nM.

B2: murine anti-human NGF monoclonal antibody 138E12 (antibody, V domains shown)
VH: QVQLKESGPGLVAPSQSLSITCTVSGFSLTGYGVNWVRQPPGKGLEWLGMIWFDGSTDYNSALKSRLSISKDNSKSQVFLKMNSLQTDDTARYYCAREGYYYGTTYYFDYWGQGTTLTVSS
VL: DIQMTQTTSSLSASLGDRVTISCRASQDISNYLNWYQQKPDGTVKLLIYYTSRLHSGVPSRFSGSGSGTDYSLTISNLEQEDIATYFCQQGNTLPRTFGGGTKLEIK
notes: Murine monoclonal antibody purified from hybridoma medium by protein G; also called anti-NGF antibody 138E12
As for B2, the Kd in assay [1] was less than 0.001 nM. Also, the dissociation rate constant (koff) in assay [1] was less than 1e-07 s⁻¹. Besides, the kon in [1] was determined as 634000 M⁻¹ s⁻¹. Besides, the results for the half-inhibitory concentration (IC50) in [2] and in assay [3] were 0.865 nM and 0.677 nM, respectively. Further, the binding result in assay [8], in assay [9] and in assay [10] was “no binding (tested: 66.67 nM)” in each case. Besides, the EC50 in [4] amounted to 0.1 nM. The “IC50, inhibition … of TrkA/Ba/F3 cells” value in assay [5] is 0.098 nM. For the same molecule, the “IC50 (row head prints EC50), inhibition of reporter gene expression in TrkA/NFAT-bla/CHO cells” value in assay [6] is 0.0442 nM. For the same molecule, the “IC50, inhibition … of TF-1 cell” value in [7] is 0.077 nM.

B3: murine anti-human NGF monoclonal antibody 43E5 (antibody, V domains shown)
VH: QVQLQQSGAELVRPGASVTLSCKASGYTFTDYEMHWVRQTPVHGLEWIGAIDPETGGTAYNQKFKGKATLTADKSSSTAYMELRSLTSEDSAVYYCRRGANLNHYGNDEGSYWGQGTLVTVSA
VL: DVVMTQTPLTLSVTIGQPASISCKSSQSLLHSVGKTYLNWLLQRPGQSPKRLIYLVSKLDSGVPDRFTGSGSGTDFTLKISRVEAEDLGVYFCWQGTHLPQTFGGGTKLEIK
notes: Murine monoclonal antibody purified from hybridoma medium by protein G; also called anti-NGF antibody 43E5
As for B3, the Kd in [1] is less than 0.001 nM. Besides, the off-rate constant (koff) in assay [1] is less than 1e-07 s⁻¹. The association rate constant (kon) in [1] was 373000 M⁻¹ s⁻¹. The values for the IC50 in [2] and in assay [3] were 0.967 nM and 0.767 nM, respectively. For the same molecule, the binding result in assay [8], in assay [9] and in [10] was “no binding (tested: 66.67 nM)” throughout. For the same molecule, the concentration for a half-maximal effect (EC50) in assay [4] turned out to be 0.082 nM. The “IC50, inhibition … of TrkA/Ba/F3 cells” value in [5] was found to be 0.096 nM. The “IC50 (row head prints EC50), inhibition of reporter gene expression in TrkA/NFAT-bla/CHO cells” value in assay [6] is 0.0532 nM. Further, the “IC50, inhibition … of TF-1 cell” value in assay [7] is 0.083 nM.

B4: human-mouse chimeric antibody 43E5-chi (antibody, V domains shown)
VH: QVQLQQSGAELVRPGASVTLSCKASGYTFTDYEMHWVRQTPVHGLEWIGAIDPETGGTAYNQKFKGKATLTADKSSSTAYMELRSLTSEDSAVYYCRRGANLNHYGNDEGSYWGQGTLVTVSA
VL: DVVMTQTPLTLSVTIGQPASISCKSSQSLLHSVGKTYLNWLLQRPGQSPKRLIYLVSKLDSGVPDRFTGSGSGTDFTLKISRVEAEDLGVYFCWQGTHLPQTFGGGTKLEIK
notes: the constant regions are not specified
Turning to B4, the binding result in [11], in [12] and in assay [14] was “no binding (tested: 66.67 nM)” each time. Moreover, in [13], the EC50 was determined as 0.104 nM. In addition, the “IC50, inhibition … of TF-1 cell” value in assay [15] came to 0.255 nM.

B5: humanized anti-NGF antibody 43E5-05 (antibody, V domains shown)
VH: QVQLVQSGAEVKKPGSSVKVSCKASGYTFTDYEMHWVRQAPGQGLEWMGAIDPETGGTAYNQKFKGRVTITADKSTSTAYMELSSLRSEDTAVYYCRRGANLNHYGNDEGSYWGQGTLVTVSS
VL: DVVMTQSPLSLPVTLGQPASISCKSSQSLLHSVGKTYLNWLQQRPGQSPRRLIYLVSKLDSGVPDRFSGSGSGTDFTLKISRVEAEDVGVYFCWQGTHLPQTFGGGTKVEIK
notes: Humanized antibody expressed in CHO cells
With B5, the binding result in assay [11], in [12] and in assay [14] was “no binding (tested: 66.67 nM)” each time. Moreover, the 50% effective concentration (EC50) in assay [13] was found to be 0.214 nM. Further, in [15], the “IC50, inhibition … of TF-1 cell” value was determined as 0.701 nM.

B6: humanized anti-NGF antibody 43E5-06 (antibody, V domains shown)
VH: QVQLVQSGAEVKKPGSSVKVSCKASGYTFTDYEMHWVRQAPGQGLEWIGAIDPETGGTAYNQKFKGRATLTADKSTSTAYMELSSLRSEDTAVYYCRRGANLNHYGNDEGSYWGQGTLVTVSS
VL: DVVMTQSPLSLPVTLGQPASISCKSSQSLLHSVGKTYLNWLQQRPGQSPRRLIYLVSKLDSGVPDRFSGSGSGTDFTLKISRVEAEDVGVYFCWQGTHLPQTFGGGTKVEIK
notes: as for B5
For B6, the binding result in [11], in assay [12] and in [14] was “no binding (tested: 66.67 nM)” throughout. Besides, in assay [13], the EC50 worked out at 0.192 nM. Further, the “IC50, inhibition … of TF-1 cell” value in assay [15] came to 0.568 nM.
